A short description of this data set: soluble fraction after stress (log2 fold change); higher = more stays soluble; pooled small domains, quantitative proteomics. The note with it: stress: 75 degC.

Where only a bound is given, the exact number is not on record here.
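Also: 20 min heating vs room temperature control held 20 min.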

Take “HMPRFDINFKVGEVVTIKGGSFDGQQGEISEIDHEHGKIKVMLEVLGRLTPVEVEHTEIEKI”: the “soluble fraction (log2)” value was -0.269. The same measure for “HMPRKLDDQLQEQIRYLKSNYPRMSAAGIFRQLQDNGSIKHGDVSESTINRYVNLLSIEMKTTT”: -0.395; for “HMPRNMTFAIRGEYITLDALLKAVGAADSGAQAKHRIAEGEVTVDGVVETRKTRKLRGGETVVVDDLAVVL”: -0.734; for “HMPRQREVPDVSGWTEQHAKVYLEALGYRVKVIYLEVSSFDKGLVQETSPAKGSKVEEGDTIDLRVSNQE”: -2.64. The same measure for “HMPRSLGADLRAIRKGRRLTLTDMAEALDRSVGWVSQVERDISTPSISDLRRMAEILDVPVSLLFG”: -3.17. On to “HMPSARELLATNIVRLRKEKGWSQEDLALEAGLHRTFVAHVERHARNISLDNIERLANALQVNVHILLL”, for which the “soluble fraction (log2)” value is -3.81. The same measure for “HMPSEDELAERLRGAIRQGDILNEGRMPPERALAEHFGVSRARLRLALGLLQEDGTIYRRHGQGTFAT”: -0.308; for “HMPSIGKNILYYRKKRNMTIDELSKKSGVSKSMLSQVEQEKTNPTVVTVWKIARSLDVSINQLLQT”: -2.83; for “HMPSKKHARWIELEARKFMADNEDAVSDLHELRTRAANFAALKTSTLPVDQHRAIVAGFVARVNELGRRI”: -1.02. To “HMPSLSPDETVVVDALRQQNDMQINMISVKTNLPIARLSAILFEMELKGVLKPLAGGVYHLL” belongs -2.3; to “HMPSPEMLKETEKRKAEEIYRSQINLFIDDYHRLKGQYPLLEDIIDNKKDSIPIEILREISISILKNYFE”, -0.802. The same measure for “HMPSPEVELLEDLLSKTDEAEVEAAFHENQALVNDEFKAMLGSLIQELSKTQEADPEIIARIRFIQKLT”: -0.128; for “HMPSREDFAYDSIKEAILSGELLPNQKISLSDLANKLGISIIPVNSAVGRLVAEGLVRQDPHHSPYVV”: 0.481. As to “HMPSRPIQVASFSKEDNAKRAAEALAKIGVTATPQKSEKAGKAVWGVVVTGDDAMLQKIKDAGFADAYFL”, the “soluble fraction (log2)” value stood at 0.0515.

Take “HMPSTKDGIKEFLSSGAMKGIGRKTASAIVSRFGIDTLKIIEQEPQRLTEVSGIGKKTAQRIAEAFGKH”: the “soluble fraction (log2)” value was -0.26. To “HMPSTVRVPDVAETSLSEAKKTIEESGLEVGAIHKVNNDTVKKNHVIKTSPTIGSAKKEGSAIDIYVSKG” belongs -0.0483; to “HMPSTVSVPDVAGSSLSEAKTTIKSSGLKVGTVHKVSSDTVESGYVIKTSPTAGSSKKEGSSIDIYVSKG”, at least 1.04. To “HMPTANFPAMAEALKKQYGPPTGEEETSWTHRLGGVFDIKIQSWNTPQGEMVLRSRGAAMDAGML” belongs 0.385; to “HMPTEPTARELEVTTLLAQGLSNREIAGALFISEHTVRNHLGHVFSKLGVSSRTQAVVRAGQLGWLR”, -2.54; to “HMPTKSDLLQWIKDRASKMGGAFTNSGAYALADAGVDGPRALSSEINKLLTYVNWERSVEADDVIRL”, -0.455. To “HMPTLTPFDVARIENAINPRLNLETAAKLKPWIAAGYTAQETADGTGFSPDTVKKYAAIFRK” belongs -0.0357; to “HMPTQTEELRRRIVADVNAGEPGAKLGSERELAERYGTSRSSLRQVLAALQEAGLIDRVIGRSGGIFISH”, -0.0502. In the case of “HMPTSILEKILNSAAEQFTRYGFKTITMDDIARHAGVSKKTLYQHFETKLDIIVAAVTHFHTMKF”, the “soluble fraction (log2)” value was -1.62.

As for “HMPTYEEAKTYLKAAFEHIVAAGRDVGELVEFAFAKSGDAVAPYLRRFLSDVHEGRITIQGLTESAKLAV”, the “soluble fraction (log2)” value stood at 0.292. To “HMPVEQVWHIAEAGKTKGPFSRASMGRMSADGALTRDTLVWTAGQDGWKKAADVTALATLFT” belongs 0.0108; to “HMPVFYATNRQKTTIHNLKRKKGLDDDAYRATIYSFTHGRTDSSKYMYKYEAAELIQKWLDPE”, -1.49; to “HMPVGVPGVVYNTDSLNVRKGAGTNYDIVSKLKRGSVIEVLEQTAVDGTVWGRIAEGWVNMEYVSL”, -1.04. The same measure for “HMPVSDLQSALRNTLSKGDATDPAFRQRVYRAAMDALERATGSESDPQRRSEQKQRLIAVIRDMEASYRR”: 0.157; for “HMPVTKSARQSRIGELIAREPVRSQSELAARLADDGIVVSQGTLSKDLLELGAVRVRTSSGELAYALL”: 0.0547; for “HMPWLIAVTVDGVNLPRFLRRAGEMGLLLTGVRIRGKHLSAFAREDDVPPLRMMAENGGWRFSVGN”: -2.23. The same measure for “HMPYEHQRAVGALIRRLREQQGWSQRALADWVHMDQSAVSRVETGQRSVTAEELGRFADALHVSTDALVR”: -0.263; for “HMPYFLKQSNTRSKGLYLQIYHSFYVPGKGSRNKSYKAIGYVSELIKNGIEDPITYAKNLVDELNNNSSTP”: -3.82; for “HMPYPSPADLARMDELIAWVKDEGRLPRDRSGQRSERSMARWLAARRREAAEGTLDPAYRDGLAQVPGWR”: -0.497. As for “HMPYSAAVTFLDDAKQPMVNYNYRLIAENGIEVSGITDEFGKTQPIQTDQREKVDLYIADLPN”, the “soluble fraction (log2)” value amounted to 0.693. With “HMQAALEVQASAGVLAPVPPDQRQALLDTLAQDPRPGYQHEAGRVYGFPFGGFEVRFTVSDGLLTVLSAYK”, the “soluble fraction (log2)” value was -1.82. The same measure for “HMQAATQVNIVGLFSNKAVVIINGGKPKTLSVGQTSEGVKLLAADSQTATLQIEGKTQQLGMGQAASVGG”: -0.758; for “HMQAESLTVVRSAELKADRFLDAATLQTLQTGQVVESLRTESGWVQVRIAGQQGWVRAMNVKGA”: -1.1; for “HMQAITVNNEGKIFLNTIPVTLEELSSKLESLKSSTPEFPVVIRGDSGSQYQGIMDVLNVVGRLGITQIGL”: -0.708.

Consider “HMQAKDVEVPDYVGKSFVSIKENNPNDFKFEVKSEYDESKEMGVILDQEPKGGSMKVKSGSTITVTV”, for which the “soluble fraction (log2)” value amounted to 0.156.

On to “HMQASPADLLSDRELEVFQLTGEWKTTRQIAQELHLSVKTIEYYREQIKRKLNLKSAAELTQHATAWVQRG”, for which the “soluble fraction (log2)” value was -2.93. To “HMQDAVASEKIQLMSEALHARDTGDLLLAKEKVEKLIALAPNDKNIQALLLTINQSIEDKGL” belongs -0.112.

Turning to “HMQDIDIVDLKRISELIYQKYNYDFRNYAMSSFKRRVQRIIELKKLTVDGLIKRLNDTPSFINEFLDELTV”, the “soluble fraction (log2)” value was -0.014.

For “HMQDNLKKYMDKLSQRDAELIVYKYLWNMSEKEISEMFHIKQEQVHVYVGRAKKRLFKIIKKEME”, the “soluble fraction (log2)” value was -0.425. As to “HMQDRDKNIEEGRQLVLHEMDRLDLVDEPLHDVARQLNMKAVEDMFAAVGAGDLRLGQIIHQLLKQADTN”, the “soluble fraction (log2)” value was -0.215. The same measure for “HMQDSIYYAQYRINIRNMPSSEGMVISRASVGEALEVLDWQEQWSKVRKQSGVEGYVASRLLTK”: -2.34; for “HMQDTIDLVIQVNGKLRGQMNVPKDTDRATIEQLAINLENVQKIVAGNAIKKIIIVPGRLINIVVSKNL”: -2.78.

“HMQDTYQVKLLTNLNIRKSPNGTIVQKGGAKKGIIYTIVETSGTWGRLKSNAGWISVSDKYVTK”: the “soluble fraction (log2)” value was -3.58. To “HMQDVKRYLVNSNQLNVRTGPGKEFEISESLNKGDAVTLLHKESNGWWEVITSTGQGYVYSSMLTKDPW” belongs -0.735; to “HMQDVVERIKKYKQLFSITSEELSKRSGIPLGTLNKILSSSTKSIKTETLAAIAKGLDVSVSDLVGREK”, -0.251; to “HMQEAGKWLKKLRTERKITLEQLSKKTGLSVGFLSQFERGLTSIAIDTLEKIAAVFNVTIDYFISP”, 0.0548. To “HMQEEFVAPDVKDGAIVLHKAFGEGTVTKIDKAQKHIRVTFGVGEKTFIFPDAFKQGFLRMKG” belongs 0.303.

“HMQEERLTFDTLLGISGIGPRLALAVLSRFTPGSLAAAVDAGDTKAFSAVPGVGNRTASRIILELKGKL”: the “soluble fraction (log2)” value was -0.748. Take “HMQEGPGLVPDFRGQTMREVLRGGQSLGVRVAVDGTGLAVAQTPEPGSPLNKVSQVTVSFRPP”: the “soluble fraction (log2)” value was found to be 0.0233. For the sequence “HMQEINLIGVTGNDLERSALVKLLDGEIIKLSVGDNLNGGRVVDISAVTLTYLKSGQSITLKLPK”, the “soluble fraction (log2)” value is -2.9. To “HMQELGVISEGKYNIELNMVSWNDREPKYDIRSWAPDHSRMGKGISLTEEEMERLVELWNTRNE” belongs -0.441; to “HMQELKWERNYKLVQDYIKQYGVLPSKNTKYANVSIGRWLTNQHELVKEDNLAPERFEKIKELDT”, -0.297. To “HMQENDLGAVEKIVDDVLHDPKNAQAVADFKAGSEKVLGFLTGQVMKASRGKANPSVVQEVLRQKLKN” belongs -0.314; to “HMQENVIIYPNPTKSVIYLSEKVEFILYNILGEIIFIGDNNKIDLNSFDNGVYIFESGNVRTQIIK”, 0.0395; to “HMQEQIVQGIVKYFDAEKQFGFIAGDDGVDRFFNAKSIQGNAVKTGDRVRFLAISHIRGPRALKISA”, -1.24. As to “HMQEQSSYVGQFGTAATTLRPSGTVELEDGTRIDVVTVGEFIEKGEPVQVVRKDGTWLVVEKRRSK”, the “soluble fraction (log2)” value stood at 0.976. To “HMQERKYTVSFNTNGGSTINDQKITSGNVIISPGAPKRSGYTFVGWYYHGQPFDLNTKINQDYVLVAKWIK” belongs -2.49.

Consider “HMQETILFGQQKAINNLSSDTGLSENDLDSYLKKRYKKPLYQLTQSEGADIINGFQDGSLSKNSILDYIKP”, for which the “soluble fraction (log2)” value turned out to be 0.173. The same measure for “HMQEVKVRLKPDYLGEVLIKVISDKGELKAELFVSNSQVRSLLRAYAVEFQNQIRDQGYNFSEINVYR”: -0.738; for “HMQFAEIPNFSEMALQILRLQADGLSITKIAEALHMNPRTVKYHAQENYRKLQASNKSEALLAARNLNL”: -1.85.

Turning to “HMQFEIGDTVRVHVNIREGERERVQMFEGTVIAKRGSGVSETFTVRRVSYGVGVERVFPVNSPNV”, the “soluble fraction (log2)” value amounted to 0.437. To “HMQFETVQDAFNHYRNASLEEIESRAAEIKGIIESDPEADVRALNIEIEGLHQAKQNILEKQKTK” belongs -0.179; to “HMQFLGKVTVTHARQANLRAQPSMDAAIVGKVNPGEVYNVVSIPKTSWYEIQLQNGKTVFIAAGMVSFRM”, -0.441; to “HMQFSAVVLDMETRRQVAGVAVYINPKGVVKTDMRGRFVIDGAFNSVTLVRQGYESLTLERSEMTDSIWM”, -1.64. To “HMQGEASDAQLKAIFAIARKLGITDDFEVHRKASRLAGVPEPEVLPSLKSLTYAQASAVIKALQEELE” belongs 0.248; to “HMQGENDVTIDPKKLTIGDLAKEISKIEDSEELNNILVAEKEGKGRKGAINAITERIENVSGGTG”, 0.0455.

Values taken from the domain aggregation screens of Martell et al. (2025).
